From paper PMC4209899

Tested on: Ifit1
Experiment: filter binding
Conditions: 5' cap 0 (N-7 methylguanosine)

With G3 VEEV TRD 5'-UTR RNA, cap 0 the Kd was 0.091 µM.
